Test results published in patent US20230072640A1 (published 2023).

B1: human monoclonal antibody YFV-136 (antibody, V domains shown)
VH: QVQLQESGPGLVKPSGTLSLTCAVSGGSISSSNWWSWVRQPPGKGLEWIGDIYHSGSTSYNPSLKSRVTISVDRSKNQFSLKLSSVTAADTAVYYCARAPLVNWYYFDYWGQGTLVTVSS
VL: QSVLTQPPSVSAAPGQKVTISCSGSSSNIGNNYVSWYQQLPGTAPKLLIYDNNKGPSGIPDRFSGSKSGTSATLGITGLQTGDEADYYCGTWDTSLSAGRVFGGGTKLTVL
B2: human monoclonal antibody YFV-121 (antibody, V domains shown)
VH: EVQLVESGGGLVQPGGSLRLSCAASGFTFSSYSMNWVRQAPGKGLEWVSYISSSSRTIYYADSVKGRFTISRDNAKNSLDLQMNSLRDEDTAVYYCAREVSSHGYRYWGQGTLVTVSS
VL: EIVLTQSPATLSLSPGERATLSCRASQSVSSFLAWYQQKPGQAPRLLIYDASNRATGIPARFTGSGSGTDFTLTISSLEPEDFAVYYCQQRSNWPPWTFGQGTKVEIK

Target: recombinant YFV E protein (Meridian Life Science) (Yellow fever virus, UniProt P03314 286-679)
Test: ELISA

Chain of recombinant YFV E protein (Meridian Life Science) (P03314 286-679): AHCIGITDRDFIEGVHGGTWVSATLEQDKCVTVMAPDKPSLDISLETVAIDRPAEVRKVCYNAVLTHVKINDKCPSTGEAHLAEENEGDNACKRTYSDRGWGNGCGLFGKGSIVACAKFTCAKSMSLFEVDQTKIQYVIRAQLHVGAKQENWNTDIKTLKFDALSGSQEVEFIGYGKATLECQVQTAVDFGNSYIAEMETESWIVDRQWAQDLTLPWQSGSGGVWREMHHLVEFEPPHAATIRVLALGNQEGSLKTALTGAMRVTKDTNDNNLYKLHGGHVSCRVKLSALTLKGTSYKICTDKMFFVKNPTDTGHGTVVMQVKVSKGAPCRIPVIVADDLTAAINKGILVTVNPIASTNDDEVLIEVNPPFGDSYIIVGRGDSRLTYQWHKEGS

| Binder | EC50 [µg/mL] |
| --- | --- |
| B1 | 0.27 |
| B2 | 0.311 |
